Data taken from paper PMC9482650, “Quantitative fragmentomics allow affinity mapping of interactomes” (Nature Communications, 2022).

How the values were obtained:
Assay in all cases: holdup assay
Set-up in all cases: key: below the threshold = too weak to quantify, mostly under pKd 3.1 to 4
[1] = molecular target: MAGIX, Q9H6Y5
[2] = molecular target: T1, LNX2_1, Q8N448
T1 sequence (Q8N448 228-328, limits assumed, looked up): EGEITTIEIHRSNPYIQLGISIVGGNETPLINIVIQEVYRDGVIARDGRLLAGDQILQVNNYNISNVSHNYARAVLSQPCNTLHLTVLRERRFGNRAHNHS

[3] = molecular target: T2, PDZD8, Q8NEN9
T2 sequence (Q8NEN9 361-459, limits assumed, looked up): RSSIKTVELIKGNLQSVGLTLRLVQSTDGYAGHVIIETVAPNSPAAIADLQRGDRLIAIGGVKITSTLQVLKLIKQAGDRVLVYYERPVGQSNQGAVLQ

[4] = molecular target: T3, NHERF1_2, O14745
T3 sequence (O14745 149-244, limits assumed, looked up): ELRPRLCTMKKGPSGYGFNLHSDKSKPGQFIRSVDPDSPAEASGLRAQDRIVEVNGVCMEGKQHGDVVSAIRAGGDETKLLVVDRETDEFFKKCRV

[5] = molecular target: T4, MPDZ_7, O75970
T4 sequence (O75970 1146-1253, limits assumed, looked up): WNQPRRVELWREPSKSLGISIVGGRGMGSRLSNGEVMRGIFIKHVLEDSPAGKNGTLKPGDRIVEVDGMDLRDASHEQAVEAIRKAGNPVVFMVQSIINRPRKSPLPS

[6] = molecular target: T5, TJP3_1, O95049
T5 sequence (O95049 6-103, limits assumed, looked up): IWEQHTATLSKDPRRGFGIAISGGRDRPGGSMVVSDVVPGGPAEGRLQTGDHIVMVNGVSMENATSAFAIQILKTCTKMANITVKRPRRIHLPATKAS

[7] = molecular target: T6, SHANK3, Q9BYB0
T6 sequence (Q9BYB0 641-750, limits assumed, looked up): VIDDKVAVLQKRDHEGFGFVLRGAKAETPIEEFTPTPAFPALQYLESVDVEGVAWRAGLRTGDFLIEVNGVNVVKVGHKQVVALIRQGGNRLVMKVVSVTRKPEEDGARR

[8] = molecular target: MAGI3_5, Q5TCQ9
[9] = molecular target: LIMK1, P53667
[10] = molecular target: MAGI1_5, Q96QZ7
[11] = molecular target: T7, MPP5, Q8N3R9
T7 sequence (Q8N3R9 251-346, limits assumed, looked up): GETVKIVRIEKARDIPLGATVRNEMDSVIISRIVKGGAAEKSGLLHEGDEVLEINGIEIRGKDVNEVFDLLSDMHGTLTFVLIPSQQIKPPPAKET

[12] = molecular target: PREX1_1, Q8TCU6
[13] = molecular target: DVL2, O14641
[14] = molecular target: T8, MLLT4, P55196
T8 sequence (P55196 1002-1103, limits assumed, looked up): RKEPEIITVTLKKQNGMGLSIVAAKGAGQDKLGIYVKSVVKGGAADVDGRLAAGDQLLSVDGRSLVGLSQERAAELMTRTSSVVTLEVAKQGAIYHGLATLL

[15] = molecular target: LMO7, Q8WWI1
[16] = molecular target: CNKSR3, Q6P9H4
[17] = molecular target: MAGI1_4, Q96QZ7
[18] = molecular target: T9, PDZD7_2, Q9H5P4
T9 sequence (Q9H5P4 205-303, limits assumed, looked up): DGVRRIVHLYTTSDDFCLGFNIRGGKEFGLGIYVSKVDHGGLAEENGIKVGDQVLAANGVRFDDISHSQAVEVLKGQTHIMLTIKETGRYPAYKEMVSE

[19] = molecular target: GRIP2_2, Q9C0E4
[20] = molecular target: T10, SNTB2, Q13425; settings: plain residues with an end cap or a label only (N-terminal biotin on a linker: (peg)3)
T10 sequence (Q13425 110-208, limits assumed, looked up): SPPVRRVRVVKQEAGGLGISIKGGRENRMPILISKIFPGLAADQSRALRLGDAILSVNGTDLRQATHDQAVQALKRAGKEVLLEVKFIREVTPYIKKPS

[21] = molecular target: LNX1_4, Q8TBB1
[22] = molecular target: T11, USH1C_3, Q9Y6N9
T11 sequence (Q9Y6N9 447-547, limits assumed, looked up): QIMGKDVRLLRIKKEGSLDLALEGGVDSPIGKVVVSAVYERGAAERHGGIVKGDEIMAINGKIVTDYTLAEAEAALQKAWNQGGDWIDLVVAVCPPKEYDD

[23] = molecular target: GIPC3, Q8TF64
[24] = molecular target: T12, GRIP1_1, Q9Y3R0
T12 sequence (Q9Y3R0 48-146, limits assumed, looked up): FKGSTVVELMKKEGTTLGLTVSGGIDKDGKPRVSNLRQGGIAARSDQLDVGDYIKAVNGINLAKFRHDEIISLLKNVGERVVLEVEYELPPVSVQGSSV

[25] = molecular target: CARD14, Q9BXL6
[26] = modified: acetyl on K at position -1 from the C-terminal residue
[27] = plain residues with an end cap or a label only (N-terminal biotin on a linker: (peg)3)
[28] = modified: phospho on S at position -3 from the C-terminal residue

MAGI3_5, Q5TCQ9, sequence (Q5TCQ9 847-941): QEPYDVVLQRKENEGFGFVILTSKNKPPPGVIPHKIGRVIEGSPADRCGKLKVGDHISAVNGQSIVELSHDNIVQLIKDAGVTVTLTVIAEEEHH
PREX1_1, Q8TCU6, sequence (Q8TCU6 608-718): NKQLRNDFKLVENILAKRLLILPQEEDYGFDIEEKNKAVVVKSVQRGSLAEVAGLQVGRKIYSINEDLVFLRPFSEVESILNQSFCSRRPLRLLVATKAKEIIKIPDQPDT
MAGI1_5, Q96QZ7, sequence (Q96QZ7 986-1098): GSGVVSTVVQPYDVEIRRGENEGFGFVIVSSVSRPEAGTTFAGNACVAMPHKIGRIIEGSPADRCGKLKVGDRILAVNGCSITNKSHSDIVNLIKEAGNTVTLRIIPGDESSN
MAGIX, Q9H6Y5, sequence (Q9H6Y5 118-211): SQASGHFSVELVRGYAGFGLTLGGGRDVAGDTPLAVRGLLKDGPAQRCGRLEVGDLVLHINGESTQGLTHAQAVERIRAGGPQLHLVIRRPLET
CNKSR3, Q6P9H4, sequence (Q6P9H4 203-303): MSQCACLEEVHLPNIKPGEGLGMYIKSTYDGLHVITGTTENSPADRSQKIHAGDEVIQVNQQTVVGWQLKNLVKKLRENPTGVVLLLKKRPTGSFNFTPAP
GRIP2_2, Q9C0E4, sequence (Q9C0E4 137-245): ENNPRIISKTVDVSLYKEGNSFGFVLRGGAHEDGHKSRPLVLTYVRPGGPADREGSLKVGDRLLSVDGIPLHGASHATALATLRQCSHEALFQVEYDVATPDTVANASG
CARD14, Q9BXL6, sequence (Q9BXL6 558-663): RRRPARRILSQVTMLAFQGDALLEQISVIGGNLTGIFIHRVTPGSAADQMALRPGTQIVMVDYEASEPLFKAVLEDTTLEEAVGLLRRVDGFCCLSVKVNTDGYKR
DVL2, O14641, sequence (O14641 260-359): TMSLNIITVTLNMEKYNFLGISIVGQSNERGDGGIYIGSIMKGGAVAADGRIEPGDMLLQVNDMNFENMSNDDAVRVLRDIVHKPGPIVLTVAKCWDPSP
LIMK1, P53667, sequence (P53667 155-268): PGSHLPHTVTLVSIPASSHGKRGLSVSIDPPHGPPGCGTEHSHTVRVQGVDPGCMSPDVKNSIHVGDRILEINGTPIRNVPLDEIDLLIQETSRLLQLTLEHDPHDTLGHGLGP
MAGI1_4, Q96QZ7, sequence (Q96QZ7 other isoform, or with tags, fused parts or gaps): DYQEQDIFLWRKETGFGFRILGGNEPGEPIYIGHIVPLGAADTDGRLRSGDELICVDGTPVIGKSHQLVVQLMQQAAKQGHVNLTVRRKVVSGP
LMO7, Q8WWI1, sequence (Q8WWI1 1037-1138): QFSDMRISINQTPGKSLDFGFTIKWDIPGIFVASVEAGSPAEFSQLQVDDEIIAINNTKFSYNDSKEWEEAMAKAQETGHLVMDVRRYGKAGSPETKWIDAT
LNX1_4, Q8TBB1, sequence (Q8TBB1 631-726): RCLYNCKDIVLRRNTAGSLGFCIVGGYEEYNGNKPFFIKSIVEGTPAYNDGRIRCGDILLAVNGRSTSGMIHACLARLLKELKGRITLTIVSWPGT
GIPC3, Q8TF64, sequence (Q8TF64 107-202): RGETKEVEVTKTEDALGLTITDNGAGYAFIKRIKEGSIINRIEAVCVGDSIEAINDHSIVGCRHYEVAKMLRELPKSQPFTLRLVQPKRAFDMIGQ

DEDQHTQITKV [PTEN_Ac, P60484]
pKd [1, 26]: below the threshold | pKd [2, 26]: below the threshold | pKd [3, 26]: below the threshold | pKd [4, 26]: below the threshold | pKd [5, 26]: 4.8 | pKd [6, 26]: below the threshold | pKd [7, 26]: 4.04 | pKd [8, 26]: 3.97 | pKd [9, 26]: below the threshold | pKd [10, 26]: 4.84 | pKd [11, 26]: below the threshold | pKd [12, 26]: below the threshold

YDEPTTTTSVPL [SARS-Cov2-3a, P0DTC3]
pKd [13, 27]: below the threshold | pKd [1, 27]: below the threshold | pKd [14, 27]: below the threshold | pKd [2, 27]: below the threshold | pKd [3, 27]: below the threshold | pKd [15, 27]: below the threshold | pKd [16, 27]: below the threshold | pKd [17, 27]: below the threshold | pKd [4, 27]: below the threshold | pKd [5, 27]: below the threshold | pKd [6, 27]: below the threshold | pKd [7, 27]: below the threshold | pKd [18, 27]: below the threshold | pKd [19, 27]: below the threshold | pKd [8, 27]: below the threshold | pKd [20]: below the threshold | pKd [21, 27]: below the threshold | pKd [9, 27]: below the threshold | pKd [22, 27]: below the threshold | pKd [10, 27]: 3.76 | pKd [23, 27]: below the threshold | pKd [11, 27]: below the threshold | pKd [24, 27]: below the threshold | pKd [12, 27]: below the threshold | pKd [25, 27]: below the threshold

RRVRKLPSTTL [RPS6KA1_-3P, Q15418]
pKd [13, 28]: below the threshold | pKd [1, 28]: below the threshold | pKd [14, 28]: below the threshold | pKd [2, 28]: below the threshold | pKd [3, 28]: below the threshold | pKd [15, 28]: below the threshold | pKd [16, 28]: below the threshold | pKd [17, 28]: below the threshold | pKd [4, 28]: below the threshold | pKd [5, 28]: 3.63 | pKd [6, 28]: below the threshold | pKd [7, 28]: below the threshold | pKd [18, 28]: 3.49 | pKd [19, 28]: below the threshold | pKd [8, 28]: below the threshold | pKd [21, 28]: below the threshold | pKd [22, 28]: below the threshold | pKd [10, 28]: below the threshold | pKd [23, 28]: below the threshold | pKd [11, 28]: below the threshold | pKd [24, 28]: below the threshold | pKd [12, 28]: below the threshold | pKd [25, 28]: below the threshold
